Data reported in PMC5536344.

Key:
[1] = target: HIV-1 Pr55^Gag (untagged full length wild type Gag polyprotein) (HIV-1); test: SEC-MALS
[2] = target: HIV-1 Pr55^Gag (untagged full length wild type Gag polyprotein) (HIV-1); test: SEC
[3] = target: HIV-1 Pr55^Gag with a TEV-cleavable C-terminal hexahistidine tag, uncleaved (HIV-1); test: SEC
[4] = target: HIV-1 Pr55^Gag with a non-cleavable C-terminal hexahistidine tag (HIV-1); test: SEC
[5] = target: HIV-1 Pr55^Gag-ENLYFQ (Pr55^Gag-TEV-His after removal of the tag with TEV protease) (HIV-1); test: SEC

HIV-1 Pr55^Gag (untagged full length wild type Gag polyprotein) (natural protein)
stoichiometry N [1]: 2
stoichiometry N [2]: 2

HIV-1 Pr55^Gag with a TEV-cleavable C-terminal hexahistidine tag, uncleaved (natural protein)
stoichiometry N [3]: 2

HIV-1 Pr55^Gag with a non-cleavable C-terminal hexahistidine tag (natural protein)
stoichiometry N [4]: 2

HIV-1 Pr55^Gag-ENLYFQ (Pr55^Gag-TEV-His after removal of the tag with TEV protease) (natural protein)
stoichiometry N [5]: 2
